Reference: patent US20100190692A1 (published 2010)
*1 amine or outer side, *2 acyl side, *3 side chain or, on linkers, in order; H or OH if unused. [ ]: non-standard residue; d: D form. dSer(tBu) = CC(C)(C)OC[C@@H](N[*:1])C(=O)[*:2]; pGlu = O=C1CC[C@@H](C(=O)O)N1; azaGly = NNC(=O)O

Columns and labels:
human GnRH receptor [1] = target: T1, human GnRH receptor (human, UniProt P30968 1-328); assay: cell-based or functional assay
T1 construct: whole, on cells; Endogenous receptor; also called LHRH receptor; human pituitary GnRH receptor
T1 sequence (looked up): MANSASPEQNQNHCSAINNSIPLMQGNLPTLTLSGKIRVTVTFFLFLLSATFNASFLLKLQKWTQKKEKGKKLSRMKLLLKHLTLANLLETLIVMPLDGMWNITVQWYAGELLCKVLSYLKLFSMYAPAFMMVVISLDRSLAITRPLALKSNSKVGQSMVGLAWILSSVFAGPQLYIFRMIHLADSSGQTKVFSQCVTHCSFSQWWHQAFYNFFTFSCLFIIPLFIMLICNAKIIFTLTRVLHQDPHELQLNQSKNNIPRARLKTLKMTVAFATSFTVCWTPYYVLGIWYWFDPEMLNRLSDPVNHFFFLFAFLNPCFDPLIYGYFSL

human GnRH receptor [2] = target: T1, human GnRH receptor; assay: radioligand displacement curves on BLM melanoma cell membranes
human GnRH receptor [3] = target: T1, human GnRH receptor; assay: radioligand displacement curves on ME15392 melanoma cell membranes
[4] = target: T2, rat pituitary GnRH receptor (rat, UniProt P30969 1-327); assay: radioligand displacement curves on rat pituitary membranes (control)
T2 construct: whole, on cells; also called Rat pituitaries
T2 sequence (looked up): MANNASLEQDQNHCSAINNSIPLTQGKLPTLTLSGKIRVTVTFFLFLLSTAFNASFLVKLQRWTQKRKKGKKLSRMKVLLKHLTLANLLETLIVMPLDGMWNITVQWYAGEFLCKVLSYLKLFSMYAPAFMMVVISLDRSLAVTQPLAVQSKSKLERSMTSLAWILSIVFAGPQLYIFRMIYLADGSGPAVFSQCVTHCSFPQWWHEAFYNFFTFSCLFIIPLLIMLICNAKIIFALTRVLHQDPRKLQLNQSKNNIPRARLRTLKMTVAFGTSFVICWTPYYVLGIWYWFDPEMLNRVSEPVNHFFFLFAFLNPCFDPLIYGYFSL

Which results are given for “Antide (LHRH antagonist, Sigma Chemical Co., No. A8802) (peptide)”?
inhibition of proliferation of MV3 melanoma cells at 10^-4 M (human GnRH receptor [1]): 15%; inhibition of proliferation of MV3 melanoma cells at 10^-5 M (human GnRH receptor [1]): 35%; stimulation of growth of MV3 melanoma cells at 10^-6 M (human GnRH receptor [1]): 40%

Cetrorelix (GnRH antagonist) (peptide) was tested. Which decrease of proliferation of U-87MG cells at 10^-6 M (human GnRH receptor [1]) did it give?
Its decrease of proliferation of U-87MG cells at 10^-6 M is 28%.

And the inhibition of proliferation of U-87MG cells at 10^-5 M (human GnRH receptor [1])?
Its inhibition of proliferation of U-87MG cells at 10^-5 M is 30%.

“Triptorelin (LHRH agonist, Sigma Chemical Co., No. L9761) (peptide)” was tested. Which inhibition of proliferation of MV3 melanoma cells from day 4 on (10^-4, 10^-5, 10^-6 M) (human GnRH receptor [1]) did it give?
Its inhibition of proliferation of MV3 melanoma cells from day 4 on (10^-4, 10^-5, 10^-6 M) is 15%.

How did the Kd (human GnRH receptor [2]) turn out when [pGlu]HWSY[dSer(tBu)]LRP[azaGly]-NH2 (also: ^125I-labelled form used as tracer in binding assay, also called Goserelin) [GnRH agonist LHRH-A (ZOLADEX, [D-Ser(tBu)^6Aza-Gly-LHRH])] was run?
The Kd was 0.7 to 1.1 nM.

What about the Kd (human GnRH receptor [3]) of the same molecule?
The Kd was 0.1 to 0.6 nM.

What about the Kd [4] of the same molecule?
Its Kd is 1.5 to 2 nM.
